The results in this text go back to patent publication US20180251563A1 (SUBDOMAIN, published 2018).

The labels stand for the following.
B1: SEQ ID NO 74 (designed binder)
chain: MGSWSFFKDDLAEIKYFLEALGGSEAELAMFEQTIAEFEYDLQDYKGKGNPEVEALRKEAAAIRDELQAYRHN
B2: SEQ ID NO 93 (designed binder)
chain: MGSWSEFWQRLEAIEDRLWALGGSEAELAAFEKEIAAFESELQAYKGKGNPEVEWLRENAAMIRDELQAYRHN
B3: SEQ ID NO 110 (designed binder)
chain: B2 chain with S5Y, W8E, Q9Y, W55Y, N59E, M62W, D65V, E66W
B4: SEQ ID NO 100 (designed binder)
chain: B2 chain with S5I, W8Y, Q9D, E15Y, W19D, N59D, M62F, D65S, E66W
B5: SEQ ID NO 104 (designed binder)
chain: B2 chain with S5T, W8H, Q9D, E15D, W55Y, N59E, M62Q, D65W
B6: SEQ ID NO 66 (designed binder)
chain: MGSWEEFDKRLDAITRRLMALGGSEAELAEFESTIAWFEWDLQEYKGKGNPEVEALDWEAYAIDYELGAYRHN
B7: SEQ ID NO 73 (designed binder)
chain: MGSWYDFKEDLADIKWMLEALGGSEAELAEFENVIAYFENDLQEYKGKGNPEVEALRKEAAAIRDELQAYRHN
B8: SEQ ID NO 80 (designed binder)
chain: MGSWQIFKGELAYIKQYLEALGGSEAELAFFEFDIAEFEEDLQYYKGKGNPEVEALRKEAAAIRDELQAYRHN
B9: SEQ ID NO 81 (designed binder)
chain: MGSWYIFKEDLAEIKEELEALGGSEAELAYFEEEIALFEMELQWYKGKGNPEVEALRKEAAAIRDELQAYRHN
B10: SEQ ID NO 78 (designed binder)
chain: MGSWDEFKEDLAHIKTDLEALGGSEAELALFEDEIADFEMYLQHYKGKGNPEVEALRKEAAAIRDELQAYRHN
B11: SEQ ID NO 88 (designed binder)
chain: MGSWFWFKEDLAFIKEDLEALGGSEAELAWFEDGIAFFEWDLQDYKGKGNPEVEALRKEAAAIRDELQAYRHN
B12: SEQ ID NO 68 (designed binder)
chain: MGSWWEFTDRLDAIFDRLWALGGSEAELAAFEESIAIFEQDLQYYKGKGNPEVEALEYEANAIQYELEAYRHN
B13: SEQ ID NO 75 (designed binder)
chain: MGSWVTFKDELADIKDFLEALGGSEAELAFFEVDIAEFEAELQFYKGKGNPEVEALRKEAAAIRDELQAYRHN
B14: SEQ ID NO 86 (designed binder)
chain: B13 chain with V5Y, T6V, D13E, D16Q, F30W, V33D, A40T, E41Q, F44H
B15: SEQ ID NO 79 (designed binder)
chain: MGSWFMFKEELADIKDWLEALGGSEAELASFESYIAWFEQDLQWYKGKGNPEVEALRKEAAAIRDELQAYRHN
B16: SEQ ID NO 92 (designed binder)
chain: MGSWEEFHSRLDAIDDRLWALGGSEAELAAFEKEIAAFESELQAYKGKGNPEVEWLRWEAATIRETLQAYRHN
B17: SEQ ID NO 95 (designed binder)
chain: MGSWDEFYYRLEAIEMRLGALGGSEAELAAFEKEIAAFESELQAYKGKGNPEVEELRHYAAQIRHMLQAYRHN
B18: SEQ ID NO 85 (designed binder)
chain: MGSWHVFKTELADIKFYLEALGGSEAELAMFELWIAEFEHELQDYKGKGNPEVEALRKEAAAIRDELQAYRHN
B19: SEQ ID NO 71 (designed binder)
chain: MGSWDHFKNDLAWIKKHLEALGGSEAELAEFEAVIAYFELYLQGYKGKGNPEVEALRKEAAAIRDELQAYRHN
B20: SEQ ID NO 99 (designed binder)
chain: MGSWDEFGRRLYAIEWRLYALGGSEAELAAFEKEIAAFESELQAYKGKGNPEVEKLREIAAVIRSNLQAYRHN
notes: also called cg06
B21: SEQ ID NO 69 (designed binder)
chain: MGSWWEFTDRLEAIEDRLWALGGSEAELAHFEDSIAQFEQELQWYKGKGNPEVEALADEADAIESELHAYRHN
B22: SEQ ID NO 67 (designed binder)
chain: MGSWSEFVDRLDAIFDRLWALGGSEAELAWFEDTIAHFEWNLQEYKGKGNPEVEALNGEADAITDELHAYRHN
B23: SEQ ID NO 96 (designed binder)
chain: MGSWIEFNMRLDAIYERLVALGGSEAELAAFEKEIAAFESELQAYKGKGNPEVEWLRKVAANIRLELQAYRHN
B24: SEQ ID NO 124 (designed binder)
chain: B23 chain with I5S, N8Y, M9L, E16D, V19D, V59T, L65E
B25: SEQ ID NO 125 (designed binder)
chain: B23 chain with I5S, N8H, M9V, E16A, V19D, W55R, K58E, V59W, L65R
B26: SEQ ID NO 103 (designed binder)
chain: B23 chain with N8E, M9V, E16N, V19A, W55R, K58R, V59Y, L65H
B27: SEQ ID NO 97 (designed binder)
chain: B23 chain with I5S, V19T, K58H, V59S, N62R
B28: SEQ ID NO 98 (designed binder)
chain: B23 chain with I5V, M9I, V19Y, W55K, K58H, V59W, N62S, L65R
B29: SEQ ID NO 123 (designed binder)
chain: B23 chain with I5T, M9L, E16D, V19M, K58A, V59S, N62A, L65V
B30: SEQ ID NO 105 (designed binder)
chain: B23 chain with I5Y, N8H, M9H, V19L, K58S, V59S, L65K
B31: SEQ ID NO 94 (designed binder)
chain: B23 chain with I5T, N8A, M9W, E16D, V19L, K58H, L65R
B32: SEQ ID NO 83 (designed binder)
chain: MGSWFNFKEELAVIKFQLEALGGSEAELAFFEWVIADFEDDLQEYKGKGNPEVEALRKEAAAIRDELQAYRHN
B33: SEQ ID NO 82 (designed binder)
chain: MGSWYYFKDELADIKWDLEALGGSEAELAWFEMLIAQFELDLQWYKGKGNPEVEALRKEAAAIRDELQAYRHN
B34: SEQ ID NO 70 (designed binder)
chain: MGSWEWFKSDLASIKWELEALGGSEAELAWFEHDIAEFEEDLQWYKGKGNPEVEALRKEAAAIRDELQAYRHN
B35: SEQ ID NO 89 (designed binder)
chain: B34 chain with E5S, S9E, W16A, E17V, W30F, H33S, E40Q, D41E, W44Y
B36: SEQ ID NO 76 (designed binder)
chain: B34 chain with E5S, S9E, S13D, W16F, H33L, E37D, E40Q, D41A, W44Q
B37: SEQ ID NO 77 (designed binder)
chain: B34 chain with E5W, W6E, S9E, S13E, E17F, E37K, E40F, D41E, W44Y
B38: SEQ ID NO 90 (designed binder)
chain: MGSWILFKDDLAWIKETLEALGGSEAELAFFEDNIADFEEQLQGYKGKGNPEVEALRKEAAAIRDELQAYRHN
B39: SEQ ID NO 91 (designed binder)
chain: B38 chain with I5Q, L6W, W13Y, F30L, N34M, E40F, Q41E, G44W
B40: SEQ ID NO 87 (designed binder)
chain: MGSWTEFKGELAEIKWILEALGGSEAELAFFEDEIAAFEWDLQKYKGKGNPEVEALRKEAAAIRDELQAYRHN
B41: SEQ ID NO 72 (designed binder)
chain: MGSWEFFKEVLAEIKYDLEALGGSEAELAWFETDIAGFEIDLQVYKGKGNPEVEALRKEAAAIRDELQAYRHN
B42: SEQ ID NO 84 (designed binder)
chain: B33 chain with Y6M, D9E, D17Y, M33D, L34D, Q37G, L40W, W44A

Positions count from the first letter of the chain named.

This test has as its target T1, CD123 (target of Example 19) (Homo sapiens (Human), UniProt P26951 19-305, limits assumed).
T1 sequence: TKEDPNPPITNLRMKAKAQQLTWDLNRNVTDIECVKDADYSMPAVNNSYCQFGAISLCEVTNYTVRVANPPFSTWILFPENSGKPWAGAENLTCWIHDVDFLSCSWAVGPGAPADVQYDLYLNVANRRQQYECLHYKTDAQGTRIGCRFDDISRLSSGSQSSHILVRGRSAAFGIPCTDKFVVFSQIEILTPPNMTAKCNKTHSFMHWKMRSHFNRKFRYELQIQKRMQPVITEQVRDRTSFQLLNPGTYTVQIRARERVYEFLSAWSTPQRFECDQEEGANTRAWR
The test is described as follows: library selection; assay not described.
With B1, the binding result is on record as “binds”.
To B2 belongs “binds”.
To B3 belongs “binds”; to B4, “binds”.
Turning to B5, the binding result is “binds”.
With B6, the binding result was “binds”.
To B7 belongs “binds”.
The same measure for B8: “binds”; for B9: “binds”.
Take B10: the binding result is “binds”.
To B11 belongs “binds”; to B12, “binds”; to B13, “binds”.
To B14 belongs “binds”.
As to B15, the binding result is recorded as “binds”.
Turning to B16, the binding result was “binds”.
Consider B17, for which the binding result was “binds”.
To B18 belongs “binds”; to B19, “binds”; to B20, “binds”.
The same measure for B21: “binds”.
In the case of B22, the binding result is “binds”.
The same measure for B23: “binds”; for B24: “binds”.
For B25, the binding result is on record as “binds”.
Consider B26, for which the binding result was “binds”.
The same measure for B27: “binds”; for B28: “binds”.
Turning to B29, the binding result is listed as “binds”.
The same measure for B30: “binds”; for B31: “binds”; for B32: “binds”.
As to B33, the binding result is “binds”.
The same measure for B34: “binds”; for B35: “binds”; for B36: “binds”.
To B37 belongs “binds”; to B38, “binds”.
The same measure for B39: “binds”; for B40: “binds”.
For B41, the binding result is given as “binds”.
Take B42: the binding result was “binds”.
